Test results from patent publication US20250381307A1, “RETRO-AAV AND USE IN TREATING NEURODEGENERATIVE DISEASES” (priority 2023, published 2025).

B1: AAV8R4: AAV8R capsid mutant R490Q (SEQ ID NO: 5) (protein)
chain: MAADGYLPDWLEDNLSEGIREWWALKPGAPKPKANQQKQDDGRGLVLPGYKYLGPFNGLDKGEPVNAADAAALEHDKAYDQQLQAGDNPYLRYNHADAEFQERLQEDTSFGGNLGRAVFQAKKRVLEPLGLVEEGAKTAPGKKRPVEPSPQRSPDSSTGIGKKGQQPARKRLNFGQTGDSESVPDPQPLGEPPAAPSGVGPNTMAAGGGAPMADNNEGADGVGSSSGNWHCDSTWLGDRVITTSTRTWALPTYNNHLYKQISNGTSGGATNDNTYFGYSTPWGYFDFNRFHCHFSPRDWQRLINNNWGFRPKRLSFKLFNIQVKEVTQNEGTKTIANNLTSTIQVFTDSEYQLPYVLGSAHQGCLPPFPADVFMIPQYGYLTLNDGSQAVGRSSFYCLEYFPSQMLRTGNNFQFTYTFEDVPFHSSYAHSQSLDRLMNPLIDQYLYYLSRTQTTGGTANTQTLGFSQGGPNTMANQAKNWLPGPCYRQQQVSTTTGQNNNSNFAWTAGTKYHLNGRNSLANPGIAMATHKDDEERFFPSNGILIFGKQNAARDNADYSDVMLTSEEEIKTTNPVATEEYGIVADNLQRGNLADQDYTKTARQAATADVNSQGALPGMVWQNRDVYLQGPIWAKIPHTDGNFHPSPLMGGFGLKHPPPQILIKNTPVPADPPTTFNQSKLNSFITQYSTGQVSVEIEWELQKENSKRWNPEIQYTSNYYKSINVDFAVNTEGVYSEPRPIGTRYLTRNL
B2: AAV8R6: AAV8R capsid mutant F536Y (SEQ ID NO: 7) (protein)
chain: MAADGYLPDWLEDNLSEGIREWWALKPGAPKPKANQQKQDDGRGLVLPGYKYLGPFNGLDKGEPVNAADAAALEHDKAYDQQLQAGDNPYLRYNHADAEFQERLQEDTSFGGNLGRAVFQAKKRVLEPLGLVEEGAKTAPGKKRPVEPSPQRSPDSSTGIGKKGQQPARKRLNFGQTGDSESVPDPQPLGEPPAAPSGVGPNTMAAGGGAPMADNNEGADGVGSSSGNWHCDSTWLGDRVITTSTRTWALPTYNNHLYKQISNGTSGGATNDNTYFGYSTPWGYFDFNRFHCHFSPRDWQRLINNNWGFRPKRLSFKLFNIQVKEVTQNEGTKTIANNLTSTIQVFTDSEYQLPYVLGSAHQGCLPPFPADVFMIPQYGYLTLNDGSQAVGRSSFYCLEYFPSQMLRTGNNFQFTYTFEDVPFHSSYAHSQSLDRLMNPLIDQYLYYLSRTQTTGGTANTQTLGFSQGGPNTMANQAKNWLPGPCYRQQRVSTTTGQNNNSNFAWTAGTKYHLNGRNSLANPGIAMATHKDDEERYFPSNGILIFGKQNAARDNADYSDVMLTSEEEIKTTNPVATEEYGIVADNLQRGNLADQDYTKTARQAATADVNSQGALPGMVWQNRDVYLQGPIWAKIPHTDGNFHPSPLMGGFGLKHPPPQILIKNTPVPADPPTTFNQSKLNSFITQYSTGQVSVEIEWELQKENSKRWNPEIQYTSNYYKSINVDFAVNTEGVYSEPRPIGTRYLTRNL
B3: AAV8R9: AAV8R capsid mutant V125I + F536Y (SEQ ID NO: 10) (protein)
chain: MAADGYLPDWLEDNLSEGIREWWALKPGAPKPKANQQKQDDGRGLVLPGYKYLGPFNGLDKGEPVNAADAAALEHDKAYDQQLQAGDNPYLRYNHADAEFQERLQEDTSFGGNLGRAVFQAKKRILEPLGLVEEGAKTAPGKKRPVEPSPQRSPDSSTGIGKKGQQPARKRLNFGQTGDSESVPDPQPLGEPPAAPSGVGPNTMAAGGGAPMADNNEGADGVGSSSGNWHCDSTWLGDRVITTSTRTWALPTYNNHLYKQISNGTSGGATNDNTYFGYSTPWGYFDFNRFHCHFSPRDWQRLINNNWGFRPKRLSFKLFNIQVKEVTQNEGTKTIANNLTSTIQVFTDSEYQLPYVLGSAHQGCLPPFPADVFMIPQYGYLTLNDGSQAVGRSSFYCLEYFPSQMLRTGNNFQFTYTFEDVPFHSSYAHSQSLDRLMNPLIDQYLYYLSRTQTTGGTANTQTLGFSQGGPNTMANQAKNWLPGPCYRQQRVSTTTGQNNNSNFAWTAGTKYHLNGRNSLANPGIAMATHKDDEERYFPSNGILIFGKQNAARDNADYSDVMLTSEEEIKTTNPVATEEYGIVADNLQRGNLADQDYTKTARQAATADVNSQGALPGMVWQNRDVYLQGPIWAKIPHTDGNFHPSPLMGGFGLKHPPPQILIKNTPVPADPPTTFNQSKLNSFITQYSTGQVSVEIEWELQKENSKRWNPEIQYTSNYYKSINVDFAVNTEGVYSEPRPIGTRYLTRNL
B4: AAV8R5: AAV8R capsid mutant V125I (SEQ ID NO: 6) (protein)
chain: MAADGYLPDWLEDNLSEGIREWWALKPGAPKPKANQQKQDDGRGLVLPGYKYLGPFNGLDKGEPVNAADAAALEHDKAYDQQLQAGDNPYLRYNHADAEFQERLQEDTSFGGNLGRAVFQAKKRILEPLGLVEEGAKTAPGKKRPVEPSPQRSPDSSTGIGKKGQQPARKRLNFGQTGDSESVPDPQPLGEPPAAPSGVGPNTMAAGGGAPMADNNEGADGVGSSSGNWHCDSTWLGDRVITTSTRTWALPTYNNHLYKQISNGTSGGATNDNTYFGYSTPWGYFDFNRFHCHFSPRDWQRLINNNWGFRPKRLSFKLFNIQVKEVTQNEGTKTIANNLTSTIQVFTDSEYQLPYVLGSAHQGCLPPFPADVFMIPQYGYLTLNDGSQAVGRSSFYCLEYFPSQMLRTGNNFQFTYTFEDVPFHSSYAHSQSLDRLMNPLIDQYLYYLSRTQTTGGTANTQTLGFSQGGPNTMANQAKNWLPGPCYRQQRVSTTTGQNNNSNFAWTAGTKYHLNGRNSLANPGIAMATHKDDEERFFPSNGILIFGKQNAARDNADYSDVMLTSEEEIKTTNPVATEEYGIVADNLQRGNLADQDYTKTARQAATADVNSQGALPGMVWQNRDVYLQGPIWAKIPHTDGNFHPSPLMGGFGLKHPPPQILIKNTPVPADPPTTFNQSKLNSFITQYSTGQVSVEIEWELQKENSKRWNPEIQYTSNYYKSINVDFAVNTEGVYSEPRPIGTRYLTRNL
B5: AAV8R8: AAV8R capsid mutant T495A (SEQ ID NO: 9) (protein)
chain: MAADGYLPDWLEDNLSEGIREWWALKPGAPKPKANQQKQDDGRGLVLPGYKYLGPFNGLDKGEPVNAADAAALEHDKAYDQQLQAGDNPYLRYNHADAEFQERLQEDTSFGGNLGRAVFQAKKRVLEPLGLVEEGAKTAPGKKRPVEPSPQRSPDSSTGIGKKGQQPARKRLNFGQTGDSESVPDPQPLGEPPAAPSGVGPNTMAAGGGAPMADNNEGADGVGSSSGNWHCDSTWLGDRVITTSTRTWALPTYNNHLYKQISNGTSGGATNDNTYFGYSTPWGYFDFNRFHCHFSPRDWQRLINNNWGFRPKRLSFKLFNIQVKEVTQNEGTKTIANNLTSTIQVFTDSEYQLPYVLGSAHQGCLPPFPADVFMIPQYGYLTLNDGSQAVGRSSFYCLEYFPSQMLRTGNNFQFTYTFEDVPFHSSYAHSQSLDRLMNPLIDQYLYYLSRTQTTGGTANTQTLGFSQGGPNTMANQAKNWLPGPCYRQQRVSTTAGQNNNSNFAWTAGTKYHLNGRNSLANPGIAMATHKDDEERFFPSNGILIFGKQNAARDNADYSDVMLTSEEEIKTTNPVATEEYGIVADNLQRGNLADQDYTKTARQAATADVNSQGALPGMVWQNRDVYLQGPIWAKIPHTDGNFHPSPLMGGFGLKHPPPQILIKNTPVPADPPTTFNQSKLNSFITQYSTGQVSVEIEWELQKENSKRWNPEIQYTSNYYKSINVDFAVNTEGVYSEPRPIGTRYLTRNL
B6: AAV8R7: AAV8R capsid mutant A606S (SEQ ID NO: 8) (protein)
chain: MAADGYLPDWLEDNLSEGIREWWALKPGAPKPKANQQKQDDGRGLVLPGYKYLGPFNGLDKGEPVNAADAAALEHDKAYDQQLQAGDNPYLRYNHADAEFQERLQEDTSFGGNLGRAVFQAKKRVLEPLGLVEEGAKTAPGKKRPVEPSPQRSPDSSTGIGKKGQQPARKRLNFGQTGDSESVPDPQPLGEPPAAPSGVGPNTMAAGGGAPMADNNEGADGVGSSSGNWHCDSTWLGDRVITTSTRTWALPTYNNHLYKQISNGTSGGATNDNTYFGYSTPWGYFDFNRFHCHFSPRDWQRLINNNWGFRPKRLSFKLFNIQVKEVTQNEGTKTIANNLTSTIQVFTDSEYQLPYVLGSAHQGCLPPFPADVFMIPQYGYLTLNDGSQAVGRSSFYCLEYFPSQMLRTGNNFQFTYTFEDVPFHSSYAHSQSLDRLMNPLIDQYLYYLSRTQTTGGTANTQTLGFSQGGPNTMANQAKNWLPGPCYRQQRVSTTTGQNNNSNFAWTAGTKYHLNGRNSLANPGIAMATHKDDEERFFPSNGILIFGKQNAARDNADYSDVMLTSEEEIKTTNPVATEEYGIVADNLQRGNLADQDYTKTARQAATSDVNSQGALPGMVWQNRDVYLQGPIWAKIPHTDGNFHPSPLMGGFGLKHPPPQILIKNTPVPADPPTTFNQSKLNSFITQYSTGQVSVEIEWELQKENSKRWNPEIQYTSNYYKSINVDFAVNTEGVYSEPRPIGTRYLTRNL

What follows are molecules tested on striatonigral projection neurons (striatal MSNs) (assay: Retrograde labeling of striatal MSNs after AAV injection into the SNr (EYFP+ cell counting)). Conditions: AAV8R capsid mutants; numbers of labeled neurons per animal.
Type: in vivo, mice
Source text: Brain profiles of two epigenetic marks for enhancers and promoters, monomethylation of histone H3 lysine 4 (H3K4me1) and acetylation of histone H3 lysine 27 (H3K27ac) were checked and approximately 2 kilobase-long sequences around the transcriptional start site (TSS) that have high levels of H3K4me1 and/or H3K27ac were identified in mouse brain. Homologous sequences at equivalent positions of the human genome were then cloned onto an AAV backbone, and the activity of the homologous sequences in directing reporter expression was tested in mice after injections of AAVs into the SNr (FIG. 3A-C, TABLE 3).
Mice were anesthetized with sodium pentobarbital (Nembutal; 80 mg/kg, i.p.), and then placed into a stereotaxic device (KOPF). Eye cream was applied on both corneas to avoid dehydration. The skull above the targeted areas was thinned with a dental drill and carefully removed. Injections were conducted with a 10 μL syringe connected to a 33-Gauge needle (Neuros; Hamilton), using a microsyringe pump (Legato 130, KD Scientific). A total volume of 200 nL virus was injected into the SNr at a speed of 20 nL/min. The coordinates for the SNr were 3.4 mm posterior, 1.3 mm lateral, 4.8 mm ventral to the bregma.
Images were acquired using a confocal microscope (Carl Zeiss, LSM880) and an Axiolmager.Z1 microscope with apotome (Carl Zeiss). Brain structures were identified microscopically and in digital photos using a mouse brain atlas. To analyze the number of EYFP+ cells in the striatum, slices from rostral to caudal striatum were used. Every sixth section was analyzed, and numbers of EYFP+ cells were multiplied by six to acquire the approximate total number and mean number of cells per animal. Images were processed using ImageJ (NIH, USA), and final quantifications were independently performed manually by two blinded experimenters.

Molecule	Labeling Efficiency in Striatonigral Pathway
B1	+ (<5k)
B2	+ (<5k)
B3	+ (<5k)
B4	+ (<5k)
B5	+ (<5k)
B6	+ (<5k)
